Measured values reported in US20240190931A1, “MAGEC2 IMMUNOGENIC PEPTIDES, BINDING PROTEINS RECOGNIZING MAGEC2 IMMUNOGENIC PEPTIDES, AND USES THEREOF” (TScan Therapeutics, Inc., priority 2021, published 2024).
Entries after “also recorded” stand apart in the source; their conditions may differ.

Legend:
[1] = target: T1, MAGEC2 peptide on HLA-B*07:02 (human); test: killing
T1 peptide: RAREFMELL

RAR peptide-pulsed cells = test: T cell recognition assay: IFNγ release on co-culture with RAR peptide-pulsed wild-type HEK293T cells; type: cell-based, human; conditions: wild-type HEK293T cells pulsed with serial dilutions of RAR peptide, co-cultured with TCR-transduced T cells; FIG. 4A
Protocol: (§1) To characterize the recognition of the identified peptide by a TCR, wild-type HEK293 cells were pulsed with serial dilutions of peptide and co-cultured with T cells transduced with the TCR of interest. After 24 hours, cultures were mixed by pipetting, and centrifuged at 2,000 rpm for 2 minutes. Supernatants were collected and measured for IFNγ secretion using a human IFNγ 3rd generation single-plex assay (Protein Simple) following the manufacturer's instructions. Alternatively, monoallelic HEK293T cells expressing a granzyme-activated fluorescent reporter were pulsed with serial dilutions of peptide and co-cultured with T cells transduced with an individual TCR of interest. After 4 hours, the cultures were harvested by pipetting and fluorescence of the reporter was detected using a CytoFLEX™ S instrument (Beckman Coulter).

[2] = target: T2, RAR peptide-HLA-B*07:02 (pMHC) complex (Homo sapiens, UniProt P01889+Q9UBF1); test: Peptide pulse-based cytotoxicity assay with granzyme-activated fluorescent reporter in HLA-B*07:02 monoallelic HEK293T cells; type: cell-based; conditions: HLA-B*07:02 monoallelic HEK293T reporter cells pulsed with RAR peptide, co-cultured with TCR-transduced T cells; FIG. 4B
T2 construct: expressed in transfected cells; host or cells: MHC-null HEK293T cells engineered to express HLA-B*07:02 (monoallelic reporter cells)
Protocol: as §1

[3] = system: melanoma cells that express MAGEC2; test: Reactivity to melanoma cell lines measured by IFNγ release; type: cell-based, human
Protocol: To detect reactivity to melanoma cell lines, wild-type melanoma cell lines were seeded at 6×10^4 cells in a 96-well flat bottom plate and rested for 16 hours at 37° C. in 5% CO2. On the following day, T cells were thawed, washed in complete RPMI-1640 medium, and added to the wells for an effector to target ratio of 1:1. The co-culture was incubated for 16 hours. Cells were then harvested by pipetting, transferred to V-bottom 96-well plates, and centrifuged at 2,000 rpm for 2 minutes. The supernatant was collected for IFNγ measurement using a human IFNγ 3rd generation single-plex assay (Protein Simple). For flow cytometry analysis (Cytoflex S™ instrument, Beckman Coulter), cell pellets were washed with FACS buffer (PBS, 0.5% BSA, 2 mM EDTA) and stained for activation-induced markers, including PE-conjugated anti-CD137 (Miltenyi), AF647-conjugated anti-CD69 (Biolegend), and BV421-conjugated anti-CD8 (BioLegend).
Melanoma lines were purchased from ATCC (Manassas, VA) and HEK293T cells were originally from Takara Bio (Shiga, Japan). All media were supplemented with 10% FBS and 1% penicillin and incubated at 37° C. in 5% CO2. A101D, A2058, HT144, and HEK293T cells were maintained in complete DMEM. SK-MEL-5 was cultured in complete EMEM, whereas HMCB required complete EMEM with 10 mM HEPES. […]

[4] = system: MAGEC2-expressing melanoma cell lines; test: Incucyte cytotoxicity assay on NucLight Red melanoma cell lines; type: cell-based, human; conditions: E:T ratio of 2:1; versus MHC-mismatched control TCR or no T cells; FIG. 6
Protocol: Melanoma lines were purchased from ATCC (Manassas, VA) and HEK293T cells were originally from Takara Bio (Shiga, Japan). All media were supplemented with 10% FBS and 1% penicillin and incubated at 37° C. in 5% CO2. A101D, A2058, HT144, and HEK293T cells were maintained in complete DMEM. SK-MEL-5 was cultured in complete EMEM, whereas HMCB required complete EMEM with 10 mM HEPES. Untransduced cancer cells were maintained in preparation for the T cell recognition assay, and 10^6 cells of each cell line were introduced with Incucyte® NucLight™ Red lentivirus reagent (Sartorius, Gottingen, Germany). Positively-labeled cells were selected using 1.5 ug/mL of puromycin over 72 hours.
Melanoma cells selected for Incucyte® NucLight™ analysis were seeded into 96-well flat bottom plates (Corning, Flintshire, UK) at 10^4 cells, except for HMCB cells, which were plated at 5×10^3 cells. On the same day, T cells were thawed, washed in complete RPMI-1640, and allowed to rest overnight in medium with 50 U/mL IL-2 (PeproTech), 5 ng/mL IL-7, and 5 ng/mL IL-15 (R&D Systems). All cells were rested for 16 hours at 37° C. in 5% CO2. A two-fold serial dilution of the T cells was performed for the effector to target ratios, with the highest E:T at 4:1, and the lowest at 1:2. […] Imaging utilized a 4× objective lens and data were analyzed using the Incucyte® Basic Software. […]

[5] = target: T3, MAGEC2 peptide on HLA-A*24:02 (human); test: killing
T3 peptide: VGPDHFCVF

VGP peptide-pulsed cells = test: IFP+ reporter-based cell killing of VGP peptide-pulsed HEK293T cells; parameters: species or system human; conditions: HEK293T cells pulsed with serial dilutions of VGP peptide, co-cultured with TCR-transduced T cells; FIG. 9A
Protocol: as §1
Data shown in FIGS. 7-9 were generated according to similar materials, methods, and experiments as described above.

B1: MAGEC2 TCR 8-3 (TCR, V domains shown)
Valpha: ILNVEQSPQSLHVQEGDSTNFTCSFPSSNFYALHWYRWETAKSPEALFVMTLNGDEKKKGRISATLNTKEGYSYLYIKGSQPEDSATYLCASGSGGATNKLIFGTGTLLAVQP
Vbeta: GEEVAQTPKHLVRGEGQKAKLYCAPIKGHSYVFWYQQVLKNEFKFLISFQNENVFDETGMPKERFSAKCLPNSPCSLEIQATKLEDSAVYFCASSQSRSLRGTEAFFGQGTRLTVV
Q: Does B1 bind [1]?
A: Result: recognises

B2: TCR 8-3: T cell receptor (TRAV24*01/TRAJ32*02; TRBV16*01/TRBJ1-1*01) recognizing MAGEC2 RAR peptide presented by HLA-B*07:02; tested in transduced T cells (protein)
TCR alpha: ILNVEQSPQSLHVQEGDSTNFTCSFPSSNFYALHWYRWETAKSPEALFVMTLNGDEKKKGRISATLNTKEGYSYLYIKGSQPEDSATYLCASGSGGATNKLIFGTGTLLAVQPNIQNPEPAVYQLKDPRSQDSTLCLFTDFDSQINVPKTMESGTFITDKCVLDMKAMDSKSNGAIAWSNQTSFTCQDIFKETNATYPSSDVPCDATLTEKSFETDMNLNFQNLLVMVLRILLLKVAGFNLLMTLRLWSS
TCR beta: GEEVAQTPKHLVRGEGQKAKLYCAPIKGHSYVFWYQQVLKNEFKFLISFQNENVFDETGMPKERFSAKCLPNSPCSLEIQATKLEDSAVYFCASSQSRSLRGTEAFFGQGTRLTVVEDLRNVTPPKVSLFEPSKAEIANKQKATLVCLARGFFPDHVELSWWVNGKEVHSGVCTDPQAYKESNYSYCLSSRLRVSATFWHNPRNHFRCQVQFHGLSEEDKWPEGSPKPVTQNISAEAWGRADCGITSASYQQGVLSATILYEILLGKATLYAVLVSTLVVMAMVKRKNS
Q: Which results are given for B2?
A: Recognition of RAR peptide-pulsed cells (IFNγ release) (RAR peptide-pulsed cells): recognizes; Killing of RAR peptide-pulsed cells (granzyme-activated fluorescent reporter) [2]: demonstrated to kill cells expressing RAR peptide-HLA-B*07:02 (pMHC) complex; also recorded: kills; Relation of TCR reactivity to MAGEC2 expression of melanoma cell lines ([3]; IFNγ release versus MAGEC2 expression, FIG. 5E): corresponds to MAGEC2 expression; Recognition of melanoma cell lines (IFNγ release) ([3]; melanoma cell lines, E:T 1:1, 16 hours, FIG. 5D): recognizes melanoma cells that express MAGEC2; Killing of MAGEC2-expressing melanoma cell lines (red object count over time) [4]: demonstrated to kill cancer cells that express MAGEC2; also recorded: kills MAGEC2-expressing melanoma cell lines

B3: MAGEC2 TCR 4-58 (TCR, V domains shown)
Valpha: KNQVEQSPQSLIILEGKNCTLQCNYTVSPFSNLRWYKQDTGRGPVSLTIMTFSENTKSNGRYTATLDADTKQSSLHITASQLSDSASYICVVSARNAGNMLTFGGGTRLMVKP
Vbeta: EAQVTQNPRYLITVTGKKLTVTCSQNMNHEYMSWYRQDPGLGLRQIYYSMNVEVTDKGDVPEGYKVSRKEKRNFPLILESPSPNQTSLYFCACASSFGTSGRGEQFFGPGTRLTVL
Q: Does B3 bind [5]?
A: Result: recognises

B4: TCR 4-58: T cell receptor (TRAV10/TRAJ39; TRBV27) recognizing MAGEC2 VGP peptide presented by HLA-A*24:02; tested in transduced T cells (protein)
TCR alpha: RGNGKNQVEQSPQSLIILEGKNCTLQCNYTVSPFSNLRWYKQDTGRGPVSLTIMTFSENTKSNGRYTATLDADTKQSSLHITASQLSDSASYICVVSARNAGNMLTFGGGTRLMVKPHIQNPEPAVYQLKDPRSQDSTLCLFTDFDSQINVPKTMESGTFITDKCVLDMKAMDSKSNGAIAWSNQTSFTCQDIFKETNATYPSSDVPCDATLTEKSFETDMNLNFQNLLVMVLRILLLKVAGFNLLMTLRLWSS
TCR beta: EAQVTQNPRYLITVTGKKLTVTCSQNMNHEYMSWYRQDPGLGLRQIYYSMNVEVTDKGDVPEGYKVSRKEKRNFPLILESPSPNQTSLYFCACASSFGTSGRGEQFFGPGTRLTVLEDLRNVTPPKVSLFEPSKAEIANKQKATLVCLARGFFPDHVELSWWVNGKEVHSGVCTDPQAYKESNYSYCLSSRLRVSATFWHNPRNHFRCQVQFHGLSEEDKWPEGSPKPVTQNISAEAWGRADCGITSASYQQGVLSATILYEILLGKATLYAVLVSTLVVMAMVKRKNS
Q: B4 was tested. Which “Recognition and killing of VGP peptide-pulsed cells (IFP+ reporter-based cell killing)” value (VGP peptide-pulsed cells) did it give?
A: Its value is “recognizes and kills VGP peptide-pulsed cells”.
